Reference: the DeepSol protein solubility set

Assay: soluble on expression in E. coli; label from the status in PepcDB or PDB records

Row | Sequence | soluble on expression in E. coli
1 | MTDQQRRVVFMATSLLLDYPDDRWEDIIDAVSVQIDDLPKNTRQQFVQFLTAVRVMGRRGMEQHYVECFDQRRRCSLFLSYYAVGDTRQRGAAILAFQESLETLGFFLEREELPDHLCVVLEVAAKAEGLAHHVATDMLAAHRDGIEVLRVALEHSDSPYSRLVAAVCSALPDIDEETRKNFVDLIRSGPPAELIGIESPLPFPTATNV | not soluble
2 | MVKVGIIGGSGLEDPNILLDPVTVAVDTPYGKPSDDVVEGTINGVECVLLARHGRKHDIMPGNVNFRANLWALYSRGVDVIIASTACGSLQENVEPGHLLFPDSVFDRTTGRQSTFFDGSYDQAPGVCHIQAHPTYNEKLRQVLISTAERCQLVHHRTGFGVCIEGPRFSTKAESMVFKSWGASLVNMTMMPECILAKELGIPYATTALVTDYDCWKEEDHVTASSVMKVFAANVEKAKTLFVEAVGEIGKIDWSAEILKLKTEARESVMISPDVVIPFLTTDNQKKF | not soluble
3 | MDTHKVFVNRIINMRKIKLIGLDMDHTLIRYNSKNFESLVYDLVKERLAESFHYPEEIKKFKFNFDDAIRGLVIDSKNGNILKLSRYGAIRLSYHGTKQISFSDQKKIYRSIYVDLGDPNYMAIDTSFSIAFCILYGQLVDLKDTNPDKMPSYQAIAQDVQYCVDKVHSDGTLKNIIIKNLKKYVIREKEVVEGLKHFIRYGKKIFILTNSEYSYSKLLLDYALSPFLDKGEHWQGLFEFVITLANKPRFFYDNLRFLSVNPENGTMTNVHGPIVPGVYQGGNAKKFTEDLGVGGDEILYIGDHIYGDILRLKKDCNWRTALVVEELGEEIASQIRALPIEKKIGEAMAIKKELEQKYVDLCTRSIDESSQQYDQEIHDLQLQISTVDLQISRLLQEQNSFYNPKWERVFRAGAEESYFAYQVDRFACIYMEKLSDLLEHSPMTYFRANRRLLAHDIDIAAALEHHHHHH | soluble
4 | AHHHHHHGSKARGRAWKYGDNIDTDVIIPARYLNTSDPKELAQHVLEDLDPEFRYKMKPGDIIVAGENFGCGSSREHAPLAIKAAGVSAVIAKSFARIFYRNAINIGLPILEAPEAVERIETGDEIEIDFSTGEIRNLTKGEVYHANPFPEFIMEIIKAGGLVEWAKRRLAK | soluble
5 | MYPNLFQPLDLGFTQLKNRVLMGSMHTGLEENKEGLHKLAAFYEERAKGGVGLIVTGGFSPNLRGRLHPFSAEFSKTKHAKAHKVVTEAVHRHGAKIALQLLHAGRYAMHPFSQSASAIRAPIAKFAPSEMSTRQIRNTIQDFANSAELAQLAGYDGVEVMGSEGYLINQFICKRTNMRYDEWGGSYQNRIRFPVEIVKAIREAVGKEFIIIFRLSMLDLVEQGSTFEEVVVLAKALEEAGVTIINTGIGWHEARIPTIATQVPRAAFSWVTEKIKPYLKVPVVTCNRINTPEQAEKILASGQADMVSMARPFLADADFVRKAQEGQSALINTCIGCNQACLDNVFRGKRASCLVNPRACYETEIVVKPAQSKKIAVVGAGPAGLAFATTASERGHQVDLFERNDRIGGQFRLAMQIPGKEEFRETIRYFANRIDQTGVKLHLGCEVQFSDLRGYDEVVIATGVTPRKIALAGLSESSKVVDYQTLIREKTPVGQKVAIVGAGGIGVDVASMLTEPKDQTLDDWLYEWGIDKAIEHPGGLYPYPETTSEREVWLLQRRKGAVGKGPGKTTGWIHKRTLEKRGVHLVGGVQYQKIDEQGLHIERDGKSELIDADSVVICAGQESVRPFEAQWAELGDKLHVIGGADVAGELDAARAIRQGVELAVRL | not soluble
6 | MGHHHHHHSHMDDIFTQCREGNAVAVRLWLDNTENDLNQGDDHGFSPLHWACREGRSAVVEMLIMRGARINVMNRGDDTPLHLAASHGHRDIVQKLLQYKADINAVNEHGNVPLHYACFWGQDQVAEDLVANGALVSICNKYGEMPVDKAKAPLRELLRERAEK | not soluble
7 | MGSDKIHHHHHHVARRKEHTHEQIRHMAISAVVEHLQCHGVDNLSLRKVATTIGYVPSTLINIFGSYQYLLLAVSEQTLLQLAAQLQLIKPTTPTKTIEQMAIVYSQFALANRRCFRLVFELTMTDDQPLPAAHLGLIKSLFSDVEFQLSQYFPSACEQEVEMMSRVLWGGIHGLTCLSLDGKLFETQSCLQDMLTSHVSSYIDGMSIKRNSNAAN | not soluble
8 | MVLRTGRLSDFQRDMMNDHWAKFGLDYQKSPFDFVEIFGNANPVVLEIGFGMGRSLVEMAAQNPDRNYIGIEVHTPGVGACIAYAVEKQVDNLRVICHDATEILRDAVADGSLAGLQLYFPDPWQKSKHHKRRIVQTEFVMRLLTKLTAGGFIHFATDWQNYAEHMLAVLRQFSPALVNTSPTGDFIDRPAFRPLTKFEARGQRLGHAVWDLYFVKKLEHHHHHH | not soluble
9 | TLAFCRFSAPGIYFLEKLFHPVASMLVRSTTFLNKHFAKKNHNISVDELSHALELTDKAEISEENNILEGIIRFGGETVKEVMTSRLDMVDLDVRTPFKEVMQCIIENAYSRIPIYSGSRDNIKGVLYIKDLLPHVNKGDNFRWQSLIRPAYFVPETKMIDDLLRDFQANKIHIAIVVDEFGGTSGLVTMEDIIEEIVGEIHDEYDD | not soluble
10 | PQFHLWKRPVVTAHIEGQPVEVLLDTGADDSIVTGIELGPHYTPKIVGGIGGFINTKEYKNVEVEVLGKRIKGTIMTGDTPINIFGRNLLTALGMSLNF | soluble
11 | MSFPTSITDHPIVQEAVHRLDDLGDPRAGQTLTRCLNDTLARTIRPMPDGTAFVVTGDIPAMWLRDSSTQMMPYLALLKDDTALQHLLLAVLRRQFQQIAHDPYANAFNAEPSGRAHDPEDLCGDPWVWEQKYEVDSLAFPLLLAHRFWAATGRTDHVPGMLRTARTVISVWRTEQDHERLSTYRFRRENGPSSDTLPNAGRGTPVTRTGMTWSGFRPSDDACAFGYNVPANLCAAAALDGAAELAHHTHDTELAEDAARLAAELRAATARHGTVRHPDFGSIYAYEVDGNGNAVLMDDANMPGLLSLPLVANIPTTDPVYLATRGFVLSPRNPTWYRGTAAEGIGSPHTPDEHIWPIAIAVQGLTSNDTTERRWALTTLLATDAGTGQMHESFHKDDPHRFTRPWFSWANAMYAELALDTVGLGTRPLWQAGTLEHHHHHH | soluble
12 | MSLKAKAAFFDIDGTLYREGLISEVFKKLIKYEIIDEEKWYKEVRPEFEKWDNRKGDYDDYLLKMTEIYVDALNGLSKSQVEFIASQVVNQKGERVYTYTRDRIKWHKERGHKIITISGSPIELVRNMAEKYGFDDYRGAEYLLDENDVYTGEVIPMWDSKSKERAVHELEAKYNIDLGESYAYGDTSGDLTMLKMVGNPVCINPTKELVKEILSDEEVKNKIRIIVERKDMIYKISSRCLECDCEFVLEGHHHHHH | soluble
13 | MAHHHHHHMRPYKRVLIKLSGGALADQTGNSFNSKRLEHIANEILSIVDLGIEVSIVIGGGNIFRGHLAEEWGIDRVEADNIGTLGTIINSLMLRGVLTSKTNKEVRVMTSIPFNAVAEPYIRLRAVHHLDNGYIVIFGGGNGQPFVTTDYPSVQRAIEMNSDAILVAKQGVDGVFTSDPKHNKSAKMYRKLNYNDVVRQNIQVMDQAALLLARDYNLPAHVFNFDEPGVMRRICLGEHVGTLINDDASLLVHEK | soluble
14 | TLFDKIWDAHVVTTVEDGPTQLYIDRLYCHEVTSPQAFAGLRERGIKVLRPEKVFCMPDHNTPTHDQDKPIEDPISKTQVDTLTKNAKDFGLTHFGMMHPKNGIIHVVGPERALTLPGMTIVCGDSHTSTHGAMGAIAFGIGTSEVEMVLASQCILQSRPKT | not soluble
15 | MGSDKIHHHHHHMVIYMIGGSPCSGKSTIASLLARQYQLLHIKLDDLVDEMMSQASADSQPICLLRQDRNPEQIWMRNPKEMADEEWRFYEEIFPYVKSYLIKKDRPLLVEGAGLLPHLVKELEWPASSYLCLTPTADFQKKHYRQREWVSYVLEGTTNPEQAFENWMQRDILFAQMVRKEAMRLGYSSLMTDGSQSEKQTAEEIARLLKLYNINEIDIKGENT | not soluble
16 | MEIPPTNYPASRAALVAQNYINYQQGTPHRVFEVQKVKQASMEDIPGRGHKYRLKFAVEEIIQKQVKVNCTAEVLYPSTGQETAPEVNFTFEGETGKNPDEEDNTFYQRLKSMKEPLEAQNIPDNFGNVSPEMTLVLHLAWVACGYIIWQNSTEDTWYKMVKIQTVKQVQRNDDFIELDYTILLHNIASQEIIPWQMQVLWHPQYGTKVKHNSRLPKEVQLE | soluble
